Measurements reported in US20250313625A1 (ELPISCIENCE SUZHOU BIOPHARMA, published 2025).
Positions count from the first letter of the chain named. In names and notes the source's numbering stands. Where two headings read alike, the source gives them in different places.

What was measured:
[1] = molecular target: T1, human LAG3, full length, stably expressed on cells (human, UniProt P18627 23-525); assay: FACS on 293F cells stably expressing human LAG3
T1 construct: whole, on cells; also called CHOK1-human LAG3
T1 sequence (looked up): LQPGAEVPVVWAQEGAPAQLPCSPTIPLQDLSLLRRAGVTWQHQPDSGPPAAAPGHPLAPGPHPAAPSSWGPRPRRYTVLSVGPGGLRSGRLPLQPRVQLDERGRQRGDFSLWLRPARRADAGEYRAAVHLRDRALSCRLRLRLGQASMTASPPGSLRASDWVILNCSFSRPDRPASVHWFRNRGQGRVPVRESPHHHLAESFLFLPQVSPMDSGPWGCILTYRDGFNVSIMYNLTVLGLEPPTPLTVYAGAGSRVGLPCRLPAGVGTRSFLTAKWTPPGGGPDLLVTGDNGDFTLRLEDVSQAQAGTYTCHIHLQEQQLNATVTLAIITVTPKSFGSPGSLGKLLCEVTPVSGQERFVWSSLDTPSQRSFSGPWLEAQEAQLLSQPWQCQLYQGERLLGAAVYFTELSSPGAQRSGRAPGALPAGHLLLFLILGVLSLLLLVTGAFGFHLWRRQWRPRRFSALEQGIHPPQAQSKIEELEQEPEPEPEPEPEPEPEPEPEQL
Procedure: (§1) Briefly the antibodies were incubated with 2×10⁵ target cells at 4° C. for 1 hour. After washing, fluorescence labeled anti-mouse IgG 2nd antibody (Life Technologies) was added and incubated at 4° C. for 1 hour. Geometric median fluorescence intensity (MFI) was detected and EC₅₀ was calculated using GraphPad Prism9.0.
(§2) MFI was detected and EC₅₀ was calculated using GraphPad Prism9.0.

[2] = molecular target: T2, mFc tagged human LAG3 ECD recombinant protein (human, UniProt P18627 23-450); assay: competitive FACS: mFc-LAG3 ECD binding to Raji cells (MHC II)
T2 construct: extracellular domain; purchased from Biointron; not shown: mouse IgG Fc (mFc) tag
T2 sequence (looked up): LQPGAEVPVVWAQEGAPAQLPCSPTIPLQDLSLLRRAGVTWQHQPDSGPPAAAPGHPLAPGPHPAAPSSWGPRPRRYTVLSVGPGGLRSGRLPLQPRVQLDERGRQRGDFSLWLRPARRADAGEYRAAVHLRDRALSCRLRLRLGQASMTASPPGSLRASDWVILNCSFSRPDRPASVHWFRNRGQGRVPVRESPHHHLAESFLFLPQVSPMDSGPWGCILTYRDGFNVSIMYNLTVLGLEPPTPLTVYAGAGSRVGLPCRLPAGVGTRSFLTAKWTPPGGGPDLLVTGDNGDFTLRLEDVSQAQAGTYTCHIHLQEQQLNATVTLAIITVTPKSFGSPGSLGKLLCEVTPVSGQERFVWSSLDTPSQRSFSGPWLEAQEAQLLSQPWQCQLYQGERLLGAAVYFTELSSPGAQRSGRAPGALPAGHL
Procedure: (§3) Activity of the purified chimeric antibodies to block LAG3 and MHC II interaction was determined by competitive FACS assay. […] After washing, dye labeled anti-mouse Fc 2nd antibody (Sigma) was added and incubated at 37° C. for 1 hour. Fluorescence intensity was detected.

[3] = molecular target: T3, human LAG3 ECD recombinant protein (plate coated, tag not stated) (human, UniProt P18627 23-450); assay: competitive ELISA format I: His-FGL1 binding to coated LAG3 ECD
T3 construct: extracellular domain
T3 sequence (looked up): T2 sequence (looked up)
Procedure: (§4) After washing, HRP labeled anti-His 2nd antibody (Sigma) was added and incubated at 37° C. for 1 hour. Then, 100 μl/well of TMB solution (Biotechnology) was added. After incubation for 15 minutes at room temperature, the reaction was stopped by the addition of 50 μl of 1N HCl. OD 450 nm was read. […] After washing, HRP labeled anti-SA 2nd antibody (Sigma) was added and incubated at 37° C. for 1 hour. Then, 100 μl/well of TMB solution (Biotechnology) was added. After incubation for 15 minutes at room temperature, the reaction was stopped by the addition of 50 μl of 1N HCl. OD 450 nm was read. […] The competition assay of format III is a competitive FACS assay. […] After washing, dye labeled anti-His 2nd antibody (Sigma) was added and incubated at 37° C. for 1 hour. Fluorescence intensity was detected.

[4] = molecular target: T4, hFc tagged human LAG3 ECD recombinant protein (human, UniProt P18627 23-450); assay: competitive ELISA format II: biotin hFc-LAG3 ECD binding to coated His-FGL1
T4 construct: range 23-450; also called biotin labelled hFc tagged human LAG3 ECD; not shown: human IgG Fc tag
T4 sequence (looked up): T2 sequence (looked up)
Procedure: as §4

[5] = molecular target: T5, human LAG3 (form used in Octet, Biacore and HDX-MS not given) (human, UniProt P18627 23-450, limits assumed); assay: BLI (Octet)
T5 sequence (looked up): T2 sequence (looked up)

[6] = molecular target: T5, human LAG3 (form used in Octet, Biacore …); assay: SPR (Biacore), 1:1 fit
Procedure: The association and dissociation curves were fit with 1:1 binding model, and the Ka/Kd/KD values for each antibody were calculated.

[7] = molecular target: T1, human LAG3, full length, stably …; assay: FACS on 293F cells stably expressing human LAG3; remark: listed apart in the source
Procedure: as §1, §2

[8] = molecular target: T2, mFc tagged human LAG3 ECD recombinant …; assay: competitive FACS: mFc-LAG3 ECD binding to Raji cells (MHC II); remark: listed apart in the source
Procedure: as §3

[9] = molecular target: T4, hFc tagged human LAG3 ECD recombinant …; assay: competitive ELISA format II: biotin hFc-LAG3 ECD binding to coated His-FGL1; remark: listed apart in the source
Procedure: as §4

B1: 027c (antibody, human IgG4, V domains shown)
VH: EVKILQSGGGLVQPGGSLKLSCAASGIDFSRYWMSWVRRTPGKGLEWIGEINPDSSTINYAPSLKDKFIISRDNAKNTLYLQMSKVRSEDTALYYCARLGIIPTYHYGSSGYYYAMDYWGQGTSVTVSS
VL: DVLMTQTPLSLPVSLGDRASISCRSSQTIVHGNGHTSLEWYLQKPGQSPQLLIYKVSNRFSGVPDRFSASGSGTDFTLTISRVEAEDLGVYYCFQVSHVPYTFGGGTKLEIK
notes: human IgG4 S228P / kappa chimeric antibody; also called chimeric antibody 027; not shown: human kappa light chain constant region (pcDNA3.4-hIgGk vector)
EC50 [1]: 2 nM | TOP MFI [1]: 302 | IC50 [2]: 4.5 nM | TOP blocking (%) [2]: 91.2% | Blocking ratio at 66.7 nM (%) [3]: 26.7% | IC50 [4]: 6.13 nM | TOP blocking (%) [4]: 78.3%

B2: hu023.04 (antibody, human IgG4, V domains shown)
VH: QVQLVQSGAEVKKPGASVKVSCKASGYTFTESPMNWVRQAPGQGFEWMGIIYTDTGEPTYAEEFKGRVTMTRDTSTSTVYMELSSLRSEDTAVYFCASDYGSILYWYFDVWGQGTLVTVSS
VL: DIQMTQSPSSLSASVGDRVTITCKASQDVSTAVAWYQQKPGKAPKLLIYSASYRYTGVPSRFSGSGSGTDFTLTISSLQPEDFATYYCQQHYNAPPTFGQGTKLEIK
notes: humanized from 023c
Kd [5]: 0.537 nM | koff [5]: 0.000164 s⁻¹ | kon [5]: 305000 M⁻¹ s⁻¹ | Kd [6]: 0.242 nM | koff [6]: 0.000402 s⁻¹ | kon [6]: 1.66e+06 M⁻¹ s⁻¹ | EC50 [7]: 0.4 nM | TOP MFI [7]: 3180 | IC50 [8]: 5.9 nM | TOP blocking (%) [8]: 99.2% | IC50 [9]: 1.7 nM | TOP blocking (%) [9]: 82.2%

B3: hu023.11 (antibody, human IgG4, V domains shown)
VH: QVQLVQSGPELKKPGASVKVSCKASGYTFTESPMNWVRQAPGQGFEWMGIIYTDTGEPTYAEEFKGRFVFSLDTSVSTAYLQISSLKAEDTAVYFCVSDYGSILYWYFDVWGQGTLVTVSS
VL: B2 VL with A43S, L73F
notes: humanized from 023c
Kd [5]: 0.0782 nM | koff [5]: 2.37e-05 s⁻¹ | kon [5]: 303000 M⁻¹ s⁻¹ | Kd [6]: 0.0205 nM | koff [6]: 9.1e-05 s⁻¹ | kon [6]: 4.43e+06 M⁻¹ s⁻¹ | EC50 [7]: 0.17 nM | TOP MFI [7]: 3140 | IC50 [8]: 5.8 nM | TOP blocking (%) [8]: 99.3% | IC50 [9]: 1.2 nM | TOP blocking (%) [9]: 83.9%
